According to patent US20180371066A1 (C2N DIAGNOSTICS, published 2018):

B1: VH2/VK2 humanized anti-tau antibody (antibody, human IgG4 S228P, kappa, V domains shown)
VH: EVKVVESGGGLVQPGGSLKLSCVVSGFTFSNYWVNWVRQAPGKGLEWVAQIRLKSDNYATHYEESVKGRFTISRDDSKSSVYLQMNSLRAEDTGIYYCTNWEDYWGQGTTVTVSS
VL: DIVLTQSPDSLAVSLGERATISCRASQSVSTSRYSYIHWYQQKPGQPPKLLIKYASNLESGVPSRFSGSGSGTDFTLNIHPLEPEDFATYYCHHSWEIPLTFGQGTKLEIKR
notes: Humanized variant of HJ8.5
B2: VH1/VK1 (antibody, human IgG4 S228P, kappa, V domains shown)
VH: EVKVVESGGGLVQPGGSMKLSCVVSGFTFSNYWVNWVRQAPGKGLEWVAQIRLKSDNYATHYEESVKGRFTISRDDSKSSVYLQMNNLRAEDSGIYYCTNWEDYWGQGTTVTVSS
VL: DIVLTQSPDSLAVSLGERATISCRASQSVSTSRYSYIHWYQQKPGQPPKLLIKYASNLESGVPSRFSGSGSGTDFTLNIHPLEEEDFATYYCHHSWEIPLTFGQGTKLEIKR
notes: humanized HJ8.5 variant, combination of VH1 and VK1
B3: VH1/VK3 humanized anti-tau antibody (antibody, human IgG4 S228P, kappa)
heavy: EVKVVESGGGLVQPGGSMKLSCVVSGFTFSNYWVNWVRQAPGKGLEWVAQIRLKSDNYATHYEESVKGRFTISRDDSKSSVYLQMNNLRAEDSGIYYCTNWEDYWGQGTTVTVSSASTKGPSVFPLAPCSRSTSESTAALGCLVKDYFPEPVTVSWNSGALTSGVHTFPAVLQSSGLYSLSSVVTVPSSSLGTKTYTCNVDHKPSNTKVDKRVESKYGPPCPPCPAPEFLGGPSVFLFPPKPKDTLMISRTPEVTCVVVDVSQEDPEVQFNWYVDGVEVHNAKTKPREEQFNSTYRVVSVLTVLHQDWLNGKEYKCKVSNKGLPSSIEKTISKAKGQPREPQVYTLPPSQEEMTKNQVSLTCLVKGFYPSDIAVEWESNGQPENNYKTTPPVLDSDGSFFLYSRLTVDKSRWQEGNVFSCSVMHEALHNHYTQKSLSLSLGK
light: DIVLTQSPDSLAVSLGERATISCRASQSVSTSRYSYIHWYQQKPGQPPKLLIKYASNLESGVPSRFSGSGSGTDFTLTISSLQPEDFATYYCHHSWEIPLTFGQGTKLEIKRTVAAPSVFIFPPSDEQLKSGTASVVCLLNNFYPREAKVQWKVDNALQSGNSQESVTEQDSKDSTYSLSSTLTLSKADYEKHKVYACEVTHQGLSSPVTKSFNRGEC
notes: Humanized variant of HJ8.5
B4: VH1/VK4 (antibody, human IgG4 S228P, kappa)
heavy chain: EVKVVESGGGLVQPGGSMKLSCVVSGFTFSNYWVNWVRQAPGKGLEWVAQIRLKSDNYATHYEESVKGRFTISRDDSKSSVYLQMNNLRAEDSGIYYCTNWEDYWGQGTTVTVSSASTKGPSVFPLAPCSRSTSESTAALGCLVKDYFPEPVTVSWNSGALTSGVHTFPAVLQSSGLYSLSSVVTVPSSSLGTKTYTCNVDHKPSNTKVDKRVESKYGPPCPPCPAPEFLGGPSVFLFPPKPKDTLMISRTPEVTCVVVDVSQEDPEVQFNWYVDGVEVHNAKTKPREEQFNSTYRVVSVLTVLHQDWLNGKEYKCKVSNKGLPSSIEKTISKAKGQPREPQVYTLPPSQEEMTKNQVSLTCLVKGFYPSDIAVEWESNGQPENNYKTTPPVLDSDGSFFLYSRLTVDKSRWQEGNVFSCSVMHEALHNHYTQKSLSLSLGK
light chain: DIVMTQSPDSLAVSLGERATISCRASQSVSTSRYSYIHWYQQKPGQPPKLLIKYASNLESGVPSRFSGSGSGTDFTLTISSLQPEDFATYYCHHSWEIPLTFGQGTKLEIKRTVAAPSVFIFPPSDEQLKSGTASVVCLLNNFYPREAKVQWKVDNALQSGNSQESVTEQDSKDSTYSLSSTLTLSKADYEKHKVYACEVTHQGLSSPVTKSFNRGEC
notes: humanized HJ8.5 variant, combination of VH1 and VK4
B5: VH2/VK1 (antibody, human IgG4 S228P, kappa, V domains shown)
VH: EVKVVESGGGLVQPGGSLKLSCVVSGFTFSNYWVNWVRQAPGKGLEWVAQIRLKSDNYATHYEESVKGRFTISRDDSKSSVYLQMNSLRAEDTGIYYCTNWEDYWGQGTTVTVSS
VL: DIVLTQSPDSLAVSLGERATISCRASQSVSTSRYSYIHWYQQKPGQPPKLLIKYASNLESGVPSRFSGSGSGTDFTLNIHPLEEEDFATYYCHHSWEIPLTFGQGTKLEIKR
notes: humanized HJ8.5 variant, combination of VH2 and VK1
B6: VH2/VK3 humanized anti-tau antibody (antibody, human IgG4 S228P, kappa)
heavy: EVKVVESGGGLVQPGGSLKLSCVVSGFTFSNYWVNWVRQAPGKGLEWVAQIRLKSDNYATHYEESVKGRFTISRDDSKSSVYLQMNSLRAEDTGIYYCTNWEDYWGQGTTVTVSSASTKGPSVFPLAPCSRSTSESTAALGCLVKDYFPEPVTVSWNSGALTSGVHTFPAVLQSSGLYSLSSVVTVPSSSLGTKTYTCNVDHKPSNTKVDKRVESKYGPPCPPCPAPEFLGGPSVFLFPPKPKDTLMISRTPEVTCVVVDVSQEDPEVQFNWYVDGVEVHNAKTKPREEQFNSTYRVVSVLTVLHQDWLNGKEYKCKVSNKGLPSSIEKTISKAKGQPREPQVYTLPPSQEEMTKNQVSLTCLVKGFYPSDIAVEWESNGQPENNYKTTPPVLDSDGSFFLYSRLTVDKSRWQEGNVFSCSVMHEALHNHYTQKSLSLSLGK
light: DIVLTQSPDSLAVSLGERATISCRASQSVSTSRYSYIHWYQQKPGQPPKLLIKYASNLESGVPSRFSGSGSGTDFTLTISSLQPEDFATYYCHHSWEIPLTFGQGTKLEIKRTVAAPSVFIFPPSDEQLKSGTASVVCLLNNFYPREAKVQWKVDNALQSGNSQESVTEQDSKDSTYSLSSTLTLSKADYEKHKVYACEVTHQGLSSPVTKSFNRGEC
notes: Humanized variant of HJ8.5
B7: VH2/VK4 (antibody, human IgG4 S228P, kappa)
heavy chain: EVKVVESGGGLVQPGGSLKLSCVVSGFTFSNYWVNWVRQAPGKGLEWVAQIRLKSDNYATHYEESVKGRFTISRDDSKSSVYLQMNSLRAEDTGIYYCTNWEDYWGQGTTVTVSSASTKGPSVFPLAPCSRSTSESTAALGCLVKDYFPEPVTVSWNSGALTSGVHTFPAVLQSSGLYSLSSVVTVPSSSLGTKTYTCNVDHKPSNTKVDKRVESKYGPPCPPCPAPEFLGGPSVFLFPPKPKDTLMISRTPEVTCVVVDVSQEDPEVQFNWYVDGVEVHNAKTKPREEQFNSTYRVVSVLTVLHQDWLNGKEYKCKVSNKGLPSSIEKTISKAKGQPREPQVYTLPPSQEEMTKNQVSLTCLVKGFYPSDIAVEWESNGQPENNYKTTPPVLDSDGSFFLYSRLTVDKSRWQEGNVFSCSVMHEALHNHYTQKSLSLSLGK
light chain: DIVMTQSPDSLAVSLGERATISCRASQSVSTSRYSYIHWYQQKPGQPPKLLIKYASNLESGVPSRFSGSGSGTDFTLTISSLQPEDFATYYCHHSWEIPLTFGQGTKLEIKRTVAAPSVFIFPPSDEQLKSGTASVVCLLNNFYPREAKVQWKVDNALQSGNSQESVTEQDSKDSTYSLSSTLTLSKADYEKHKVYACEVTHQGLSSPVTKSFNRGEC
notes: humanized HJ8.5 variant, combination of VH2 and VK4
B8: VH3/VK1 (antibody, human IgG4 S228P, kappa, V domains shown)
VH: EVQVVESGGGLVQPGGSLKLSCVVSGFTFSNYWVNWVRQAPGKGLEWVAQIRLKSDNYATHYEESVKGRFTISRDDSKNSVYLQMNSLRAEDTAIYYCTNWEDYWGQGTTVTVSS
VL: DIVLTQSPDSLAVSLGERATISCRASQSVSTSRYSYIHWYQQKPGQPPKLLIKYASNLESGVPSRFSGSGSGTDFTLNIHPLEEEDFATYYCHHSWEIPLTFGQGTKLEIKR
notes: humanized HJ8.5 variant, combination of VH3 and VK1
B9: VH3/VK2 humanized anti-tau antibody (antibody, human IgG4 S228P, kappa, V domains shown)
VH: EVQVVESGGGLVQPGGSLKLSCVVSGFTFSNYWVNWVRQAPGKGLEWVAQIRLKSDNYATHYEESVKGRFTISRDDSKNSVYLQMNSLRAEDTAIYYCTNWEDYWGQGTTVTVSS
VL: DIVLTQSPDSLAVSLGERATISCRASQSVSTSRYSYIHWYQQKPGQPPKLLIKYASNLESGVPSRFSGSGSGTDFTLNIHPLEPEDFATYYCHHSWEIPLTFGQGTKLEIKR
notes: Humanized variant of HJ8.5
B10: VH3/VK4 (antibody, human IgG4 S228P, kappa)
heavy chain: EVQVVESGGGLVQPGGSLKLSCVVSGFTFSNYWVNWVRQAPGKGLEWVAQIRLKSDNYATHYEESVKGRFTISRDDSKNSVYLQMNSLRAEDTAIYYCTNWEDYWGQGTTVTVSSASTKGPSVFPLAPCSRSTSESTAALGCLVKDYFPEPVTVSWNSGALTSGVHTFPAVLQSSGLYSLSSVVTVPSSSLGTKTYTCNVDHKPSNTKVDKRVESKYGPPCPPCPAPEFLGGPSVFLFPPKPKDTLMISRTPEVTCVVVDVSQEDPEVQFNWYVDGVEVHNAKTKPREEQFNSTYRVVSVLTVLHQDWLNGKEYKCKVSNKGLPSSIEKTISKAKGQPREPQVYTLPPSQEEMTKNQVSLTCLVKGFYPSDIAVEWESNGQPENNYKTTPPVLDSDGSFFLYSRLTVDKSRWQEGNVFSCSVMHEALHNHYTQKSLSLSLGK
light chain: DIVMTQSPDSLAVSLGERATISCRASQSVSTSRYSYIHWYQQKPGQPPKLLIKYASNLESGVPSRFSGSGSGTDFTLTISSLQPEDFATYYCHHSWEIPLTFGQGTKLEIKRTVAAPSVFIFPPSDEQLKSGTASVVCLLNNFYPREAKVQWKVDNALQSGNSQESVTEQDSKDSTYSLSSTLTLSKADYEKHKVYACEVTHQGLSSPVTKSFNRGEC
notes: humanized HJ8.5 variant, combination of VH3 and VK4
B11: VH4/VK3 (antibody, human IgG4 S228P, kappa, V domains shown)
VH: EVQLVESGGGLVQPGGSLKLSCVVSGFTFSNYWVNWVRQAPGKGLEWVAQIRLKSDNYATHYEESVKGRFTISRDDSKNSLYLQMNSLRAEDTAIYYCTNWEDYWGQGTTVTVSS
VL: DIVLTQSPDSLAVSLGERATISCRASQSVSTSRYSYIHWYQQKPGQPPKLLIKYASNLESGVPSRFSGSGSGTDFTLTISSLQPEDFATYYCHHSWEIPLTFGQGTKLEIKR
notes: humanized HJ8.5 variant, combination of VH4 and VK3

Assays:
human tau [1] = biological target: T1, human tau (human, UniProt P10636 2-60); test: competition ELISA on plate-coated human tau against biotinylated HJ8.5; IC50 normalised to chimeric HJ8.5; column C2N Run 2
T1 construct: also called soluble human tau; human tau protein

human tau [2] = biological target: T1, human tau; test: competition ELISA on plate-coated human tau against biotinylated HJ8.5; IC50 normalised to chimeric HJ8.5; column External
[3] = biological target: T2, recombinant human Tau-412 protein (human, UniProt P10636-7 1-412); test: SPR Biacore T200, mAb captured on Protein A, Tau-412 analyte, 1-to-1 model, chip A11/1
T2 construct: Analyte of the SPR study; also called human tau (1N4R, 412 amino acids)
Protocol: (§1) Kinetic data was obtained at a flow rate of 40 μL/min to minimize any potential mass transfer effects. Two repeats of the blank (no antigen) and the 2.5 nM concentration of the analyte were programmed into the kinetic run in order to check the stability of both the surface and analyte over the kinetic cycles. For the initial kinetic runs, 2-fold dilutions of Tau-412 from 40 nM to 0.156 nM were run. For kinetic analysis and on subsequent runs, an analyte range of 20 nM to 0.625 nM was selected. This range covered multiple analyte concentrations both above and below the reported KD.
(§2) The association phase was monitored for 500 seconds to allow some of the higher concentrations of analyte to reach steady state. In order to observe a sufficient signal decrease (>10%) during the dissociation phase of the kinetic cycle, dissociation was measured for 1200 seconds. As discussed in Section 5, the Fcs were allowed to stabilize for 600 seconds after each regeneration step. The signal from the reference channel Fc1 was subtracted from that of Fc2, Fc3 and Fc4.
(§3) The kinetic parameters for the interaction of Tau-412 with the 7 mAbs as measured using the Protein A capture system on the Biacore T200 are shown in Table F-2. To correct for differences in the capture level of the antibody between each binding cycle, a local Rₘₐₓ parameter was used in the 1-to-1 binding model. Kinetic analysis was performed in three independent runs using fresh preparations of Tau-412 and antibody. Run 1 and runs 2+3 used different vials of the antigen Tau-412; therefore the reported errors associated with the mean response probably represent variation in preparation of the analyte and differences in assay set-up and run. From run 1 to runs 2+3, the amount of antibody injected was adjusted to try to get closer to the target 300 RU capture levels.

human tau [4] = biological target: T1, human tau; test: competition ELISA on plate-coated human tau against biotinylated HJ8.5; IC50 normalised to chimeric HJ8.5; column C2N Run 1
[5] = biological target: T2, recombinant human Tau-412 protein; test: SPR Biacore T200, Protein A capture, mean of the VH2/VK2 runs
Protocol: as §1, §2, §3

[6] = biological target: T2, recombinant human Tau-412 protein; test: SPR Biacore T200, mAb captured on Protein A, Tau-412 analyte, 1-to-1 model, chip A11/2
Protocol: as §1, §2, §3

[7] = biological target: T2, recombinant human Tau-412 protein; test: SPR Biacore T200, Protein A capture, mean of the VH1/VK3 runs
Protocol: as §1, §2, §3

[8] = biological target: T2, recombinant human Tau-412 protein; test: SPR Biacore T200, Protein A capture, mean of the VH2/VK3 runs
Protocol: as §1, §2, §3

[9] = biological target: T2, recombinant human Tau-412 protein; test: SPR Biacore T200, Protein A capture, mean of the VH3/VK2 runs
Protocol: as §1, §2, §3

T2 sequence (P10636 other isoform, or with tags, fused parts or gaps limits assumed): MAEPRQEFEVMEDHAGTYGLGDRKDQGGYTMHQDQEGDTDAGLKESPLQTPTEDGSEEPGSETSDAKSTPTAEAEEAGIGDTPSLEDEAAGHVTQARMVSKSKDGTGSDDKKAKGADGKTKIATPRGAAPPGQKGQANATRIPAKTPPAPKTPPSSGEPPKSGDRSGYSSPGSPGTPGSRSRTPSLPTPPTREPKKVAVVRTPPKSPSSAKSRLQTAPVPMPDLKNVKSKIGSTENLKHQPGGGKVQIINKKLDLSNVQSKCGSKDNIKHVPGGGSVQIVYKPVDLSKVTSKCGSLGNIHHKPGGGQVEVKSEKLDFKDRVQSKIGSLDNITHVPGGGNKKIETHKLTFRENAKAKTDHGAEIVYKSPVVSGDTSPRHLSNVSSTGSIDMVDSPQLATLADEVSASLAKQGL
T1 sequence (P10636 2-60 limits assumed): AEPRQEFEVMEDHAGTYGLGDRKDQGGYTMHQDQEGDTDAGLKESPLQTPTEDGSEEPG

Binder	IC50 (Relative to Chimera) (human tau [1])	IC50 (Relative to Chimera) (human tau [2])	Kd [3] [nM]	koff [3] [s⁻¹]	kon [3] [M⁻¹ s⁻¹]	IC50 (Relative to Chimera) (human tau [4])	Kd [6] [nM]	koff [6] [s⁻¹]	kon [6] [M⁻¹ s⁻¹]	further results
B1	0.85 relative to Chimera	1.12 relative to Chimera	2.4	0.000628	262000	1.37 relative to Chimera	2.06	0.000587	284000	Kd [5]: 2.23 nM; koff [5]: 0.000608 s⁻¹; kon [5]: 273000 M⁻¹ s⁻¹
B2	1.11 relative to Chimera	0.84 relative to Chimera				1.49 relative to Chimera				
B3			2.24	0.000626	280000		1.94	0.000572	295000	Kd [7]: 2.09 nM; koff [7]: 0.000599 s⁻¹; kon [7]: 287000 M⁻¹ s⁻¹
B4	1.02 relative to Chimera	1.41 relative to Chimera				2.05 relative to Chimera				
B5	1.02 relative to Chimera	1.02 relative to Chimera				1.43 relative to Chimera				
B6	0.97 relative to Chimera	0.94 relative to Chimera	2.44	0.000653	268000	1.17 relative to Chimera	1.83	0.000533	292000	Kd [8]: 2.13 nM; koff [8]: 0.000593 s⁻¹; kon [8]: 280000 M⁻¹ s⁻¹
B7	1.03 relative to Chimera	1.37 relative to Chimera				1.36 relative to Chimera				
B8	1.42 relative to Chimera	1.04 relative to Chimera				1.16 relative to Chimera				
B9	1.28 relative to Chimera	0.94 relative to Chimera	2.08	0.000546	262000	0.81 relative to Chimera	1.67	0.000485	290000	Kd [9]: 1.88 nM; koff [9]: 0.000515 s⁻¹; kon [9]: 276000 M⁻¹ s⁻¹
B10	1.22 relative to Chimera	1.51 relative to Chimera				0.89 relative to Chimera				
B11	1.9 relative to Chimera	1.31 relative to Chimera				1.79 relative to Chimera				
